Biological target: Spike protein of SARS-CoV-2 (isolate USA-WA1/2020) (SARS-CoV-2) (UniProt P0DTC2)
Experiment: cell-based or functional assay

Work on S309 (antibody) yielded a neutralization EC50 (viability of Vero E6 cells by CellTiter-Glo, 72 h after infection) of 0.858 µg/mL.

Reference: US20250320302A1
